In the supplement of paper PMC11780869:

System: Bacillus subtilis
Experiment: cleaved RNA product abundance (RNA/gDNA barcode ratio) relative to median wild-type variant (ratio to wild type); higher = more accumulation of the downstream cleavage product
Procedure: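 MPRA in B. subtilis. Mutagenized RNase Y cleavage-site regions (9% mutation rate) were inserted into a barcoded reporter mRNA (truncated aprE or tetM). Cells were grown in LB at 37°C to OD600 0.3. The cleaved RNA isoform was gel-purified and its barcodes counted; the RNA:gDNA barcode ratio was normalised to the median wild-type variant, and the median over barcodes is reported per variant. The printed sequence is the variable window only; the reporter flanks are not printed.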

[1] = experiment (reporter, strain, medium): exp 4a: truncated aprE reporter, strain BJT201 with 2% xylose (RNase J1 expressed), cleavage site: cggR-gapA (positions -7 to +36 mutated)
[2] = experiment (reporter, strain, medium): exp 8a: truncated aprE reporter, strain BJT201 with 2% xylose (RNase J1 expressed), cleavage site: glnRA (positions -5 to +31 mutated)
[3] = experiment (reporter, strain, medium): exp 2b: truncated aprE reporter, strain BJT200, cleavage site: cggR-gapA (positions -7 to +36 mutated)
[4] = experiment (reporter, strain, medium): exp 6: tetM reporter, strain 168, cleavage site: cggR-gapA (positions -7 to +36 mutated)

Sequence: ACAGACGAAGGAGCCGCAAAGACGTTATTAAAGGATGAATAATCCCTCAATATAAATATCTCTCACTTATTTAAA
- cleaved RNA product abundance [1]: 0.181

Sequence: CGACATGTCCCGCTTCTTTCATTATTCCTTTAGCAACTGTTTTGATATATACATTTACCTTTTAAGAGGAGGAAT
- cleaved RNA product abundance [2]: 0.465

Sequence: ACAGACGAAGGAGCCGCAAAGAAGTTATTAAGGGATGAATAATGCCACAATATAAATATCTCTCACTTATTTAAA
- cleaved RNA product abundance [1]: 0.0904

Sequence: CGACATGTCCCGCTTCTTTCATTAATCCGTTAGCAAATTTTTTGCTATATACATTTACCTTTTAAGAGGAGGAAT
- cleaved RNA product abundance [2]: 1.19

Sequence: CGACATGTCCCGCTTCTTTCATTAATCCGTTAGCAACTTTTTTTCTATATACATTTACCTTTTAAGAGGAGGAAT
- cleaved RNA product abundance [2]: 0.658

Sequence: ACAGACGAAGGAGCCGCAAAGAAGTAATTAAGGGATGAATAATCCCTCAATATAGATATCTCTCACTTATTTAAA
- cleaved RNA product abundance [1]: 0.303

Sequence: ACAGACGAAGGAGCCGCAAAGATGTTATTAAGGGATGAATAATCCCTCAATATACATATCTCTCACTTATTTAAA
- cleaved RNA product abundance [1]: 0.483

Sequence: ACAGACGAAGGAGCCGCAAAGAAGTTATTAAGGGATGAATAATCCCTAAATATAAAGATCTCTCACTTATTTAAA
- cleaved RNA product abundance [1]: 0.356

Sequence: ACAGACGAAGGAGCCGCAAAGAAGTTATTAAGGGATGAATAATCCCTTAATATACATATCTCTCACTTATTTAAA
- cleaved RNA product abundance [1]: 0.232

Sequence: CGACATGTCCCGCTTCTTTCATTAATCCGTTAGCAACAGTTTTGCTATATAAATTTACCTTTTAAGAGGAGGAAT
- cleaved RNA product abundance [2]: 0.69

Sequence: ACAGACGAAGGAGCCGCAAAGAAATTATTAAGGGATGAATACTCCCTCAATATAAATATCTCTCACTTATTTAAA
- cleaved RNA product abundance [3]: 0.416

Sequence: ACAGACGAAGGAGCCGCAAAGAAGTTACTAAAGGATGAATAATCCCTCAATATAAATATCTCTCACTTATTTAAA
- cleaved RNA product abundance [3]: 0.0999
- cleaved RNA product abundance [1]: 0.171

Sequence: ACAGACGAAGGAGCCGCAAAGAAGTTATTAAGGGACGATTAATCCCTCAATATAAATATCTCTCACTTATTTAAA
- cleaved RNA product abundance [1]: 0.349

Sequence: ACAGACGAAGGAGCCGCAAAGAAGTTATTAAGGGATGAATAATCGCTCAATATAAATATCTCTCACTTATTTAAA
- cleaved RNA product abundance [3]: 0.101
- cleaved RNA product abundance [1]: 0.12
- cleaved RNA product abundance [4]: 0.0971

Sequence: ACAGACGAAGGAGCCGCAAAGAAGTTATTAAAGGATGAATAATCCCACAATATAAATATCTCTCACTTATTTAAA
- cleaved RNA product abundance [3]: 0.113
- cleaved RNA product abundance [1]: 0.173

Sequence: ACAGACGAAGGAGCCGCAAAGAAGTTATTAAGGGATGAATCATCCCTCAATATAAATATCTCTCACTTATTTAAA
- cleaved RNA product abundance [3]: 0.721
- cleaved RNA product abundance [1]: 0.902
- cleaved RNA product abundance [4]: 0.917

Sequence: CGACATGTCCCGCTTCTTTCATTAATCCGTTAGCAACTGTTTTGCTATATACATTTCCCATTTAAGAGGAGGAAT
- cleaved RNA product abundance [2]: 1.11

Sequence: ACAGACGAAGGAGCCGCAAAGAAATTAATAAGGGATGAATAATCCCTCAATATAAATATCTCTCACTTATTTAAA
- cleaved RNA product abundance [3]: 0.223
- cleaved RNA product abundance [1]: 0.245

Sequence: ACAGACGAAGGAGCCGCAAAGAATTTATTAAGGGATGAATAATCCCTCAACATAAATATCTCTCACTTATTTAAA
- cleaved RNA product abundance [3]: 0.298
- cleaved RNA product abundance [1]: 0.365

Sequence: CGACATGTCCCGCTTCTTTCATTAATCCGTTAGCAACTGCTTTGCTGTATACATTTACCTTTTAAGAGGAGGAAT
- cleaved RNA product abundance [2]: 0.106

Sequence: ACAGACGAAGGAGCCGCGAAGAAGTTATTAAGGCATGAATAATCCCTCAATATAAATATCTCTCACTTATTTAAA
- cleaved RNA product abundance [3]: 0.0773

Sequence: ACAGACGAAGGAGCCGCAAAGAAGTTATTAAAGTATGAATAAACCCTCAATATAAATATCTCTCACTTATTTAAA
- cleaved RNA product abundance [3]: 0.102

Sequence: ACAGACGAAGGAGCCGCGAAGAAGTTATGAAGGGATGAATAATCCCTCAATATAAATATCTCTCACTTATTTAAA
- cleaved RNA product abundance [1]: 0.248

Sequence: ACAGACGAAGGAGCCGCAAAGAAGTTATTAAGGGATGAATAATCCCTCAATATAAAATATCTCTCACTTATTTAA
- cleaved RNA product abundance [3]: 0.806

Sequence: ACAGACGAAGGAGCCGCAAAGAAGTTATTAAGGGATGTATATTCCCTCAATATAAATATCTCTCACTTATTTAAA
- cleaved RNA product abundance [1]: 0.88

Sequence: ACAGACGAAGGAGCCGCAAAGGAGTTTTTAAGGGATGAATAATCCCTCAATATAAATATCTCTCACTTATTTAAA
- cleaved RNA product abundance [1]: 0.369

Sequence: ACAGACGAAGGAGCCGCAAAGAAATTATTAAGGGATGAATAATCCCTCAATATAACTATCTCTCACTTATTTAAA
- cleaved RNA product abundance [1]: 0.325

Sequence: CGACATGTCCCGCTTCTTTCATTAATCCGTTAGAAACTGTTTTGCTATATACATCTACCTTTTAAGAGGAGGAAT
- cleaved RNA product abundance [2]: 0.228

Sequence: CGACATGTCCCGCTTCTTTCATTAATCCTTTAGCAACTGTTTTGCTATATACATTTACATTTTAAGAGGAGGAAT
- cleaved RNA product abundance [2]: 0.783

Sequence: ACAGACGAAGGAGCCGCAAAGAAGTTATTTAGGGATAAATAATCCCTCAATATAAATATCTCTCACTTATTTAAA
- cleaved RNA product abundance [3]: 0.577
- cleaved RNA product abundance [1]: 0.696

Sequence: ACAGACGAAGGAGCCGCAAAGAATTTATTAAGGGATGAATAATCCCTCTATATAAATATCTCTCACTTATTTAAA
- cleaved RNA product abundance [3]: 0.363
- cleaved RNA product abundance [1]: 0.543

Sequence: ACAGACGAAGGAGCCGCAAAGAAGTTATTAAGGTATGAATTATCCCTCAATATAAATATCTCTCACTTATTTAAA
- cleaved RNA product abundance [3]: 0.15

Sequence: ACAGACGAAGGAGCCGCAAAGAAGTTATTAATGGATGAATAATCCCTCAATATAAATAACTCTCACTTATTTAAA
- cleaved RNA product abundance [3]: 0.115
- cleaved RNA product abundance [1]: 0.23

Sequence: CGACATGTCCCGCTTCTTTCATTAATCCGTTAGCAACTGTTTGGCTATATACATTTACCGTTTAAGAGGAGGAAT
- cleaved RNA product abundance [2]: 0.403

Sequence: ACAGACGAAGGAGCCGCAAAGAAGTTATTAAGGGATGAATTATCCCTCAATATACATATCTCTCACTTATTTAAA
- cleaved RNA product abundance [1]: 0.442

Sequence: ACAGACGAAGGAGCCGCAAAGAAGTTATCAAGGGATGAATAATCCCTCAATATAAATGTCTCTCACTTATTTAAA
- cleaved RNA product abundance [3]: 0.192
- cleaved RNA product abundance [1]: 0.206

Sequence: ACAGACGAAGGAGCCGCAAAGAAGTTATTAAGGGGTGAATAATCCTTCAATATAAATATCTCTCACTTATTTAAA
- cleaved RNA product abundance [1]: 0.266

Sequence: ACAGACGAAGGAGCCGCAAAGTAGTTATTAAGCGATGAATAATCCCTCAATATAAATATCTCTCACTTATTTAAA
- cleaved RNA product abundance [3]: 0.0839
- cleaved RNA product abundance [1]: 0.0692

Sequence: ACAGACGAAGGAGCCGCAAAGAAGTTATTAAGGGACGTATAATCCCTCAATATAAATATCTCTCACTTATTTAAA
- cleaved RNA product abundance [1]: 0.705

Sequence: ACAGACGAAGGAGCCTCAAAGAAGTTATTAAGGGATGAATAATCCCTCAATATAAATATCTCTCACTTATTTAAA
- cleaved RNA product abundance [4]: 1.25

Sequence: CGACATGTCCCGCTTCTTTCATTAATCCGTTAGTAACTGTTTAGCTATATACATTTACCTTTTAAGAGGAGGAAT
- cleaved RNA product abundance [2]: 0.463

Sequence: ACAGACGAAGGAGCCGCAAAGAAATTATTAAGGGATGAATAAGCCCTCAATATAAATATCTCTCACTTATTTAAA
- cleaved RNA product abundance [1]: 0.416

Sequence: ACAGACGAAGGAGCCGCAAAGAAGTTATTAAGGCATGAATAATCCCCCAATATAAATATCTCTCACTTATTTAAA
- cleaved RNA product abundance [3]: 0.11
- cleaved RNA product abundance [1]: 0.0993

Sequence: ACAGACGAAGGAGCCGCAAAGAAGTTATTAATAGATTAATAATCCCTCAATATAAATATCTCTCACTTATTTAAA
- cleaved RNA product abundance [1]: 0.135

Sequence: CGACATGTCCCGCTTCTTTCATTATTCCGTTAGCAACTGTTTTGCTGTATACATTTACCTTTTAAGAGGAGGAAT
- cleaved RNA product abundance [2]: 0.298

Sequence: CGACATGTCCCGCTTCTTTCATTAATCTGTTATCAACTGTTTTGCTATATACATTTACCTTTTAAGAGGAGGAAT
- cleaved RNA product abundance [2]: 0.403

Sequence: CGACATGTCCCGCTTCTTTCATTAATCCGTTAGCAAATGTTTTGCTATATACATTTACCCTTTAAGAGGAGGAAT
- cleaved RNA product abundance [2]: 0.852

Sequence: CGACATGTCCCGCTTCTTTCATTAATCCGTTAGCAACTGTTTTGCTATACACATTTACTTTTTAAGAGGAGGAAT
- cleaved RNA product abundance [2]: 0.146

Sequence: CGACATGTCCCGCTTCTTTCATTAATCCATTTGCAACTGTTTTGCTATATACATTTACCTTTTAAGAGGAGGAAT
- cleaved RNA product abundance [2]: 0.236

Sequence: ACAGACGAAGGAGCCGCAAAGAAGTTATTAAGGTATAAATAATCCCTCAATATAAATATCTCTCACTTATTTAAA
- cleaved RNA product abundance [3]: 0.0876
- cleaved RNA product abundance [1]: 0.112

Sequence: CGACATGTCCCGCTTCTTTCATTAATCAGTTAGCAACTGTTTTGCTATATACTTTTACCTTTTAAGAGGAGGAAT
- cleaved RNA product abundance [2]: 0.343

Sequence: ACAGACGAAGGAGCCGCAAAGGAGTTATTAAGGGATGAATAATCCCCCAATATAAATATCTCTCACTTATTTAAA
- cleaved RNA product abundance [1]: 0.247

Sequence: CGACATGTCCCGCTTCTTTCATTAATCTGTTAGCAACTTTTTTGCTATATACATTTACCTTTTAAGAGGAGGAAT
- cleaved RNA product abundance [2]: 0.706

Sequence: CGACATGTCCCGCTTCTTTCATTAATTCGTTAGCAACTGTTTTGCTATATACATTTAACTTTTAAGAGGAGGAAT
- cleaved RNA product abundance [2]: 1.68

Sequence: CGACATGTCCCGCTTCTTTCATTAATCCGTCAGCAACTGTTTTGCTATATTCATTTACCTTTTAAGAGGAGGAAT
- cleaved RNA product abundance [2]: 0.112

Sequence: CGACATGTCCCGCTTCTTTCATTAATCCGTAAGCAACTGTTTTGCTATATACATTTAACTTTTAAGAGGAGGAAT
- cleaved RNA product abundance [2]: 0.79

Sequence: ACAGACGAAGGAGCCGCAAAGAAGTTAGTAAGGGATCAATAATCCCTCAATATAAATATCTCTCACTTATTTAAA
- cleaved RNA product abundance [1]: 0.305

Sequence: ACAGACGAAGGAGCCGCAAAGAAGTTATTAAGGTATGAATAATCCCTCAAGATAAATATCTCTCACTTATTTAAA
- cleaved RNA product abundance [3]: 0.111
- cleaved RNA product abundance [1]: 0.151
